Measurements from US20110091993A1 (SEKISUI MEDICAL, published 2011).

B1: RAP/GST fusion protein (other, human, UniProt P30533 35-357, looked up)
chain: YSREKNQPKPSPKRESGEEFRMEKLNQLWEKAQRLHLPPVRLAELHADLKIQERDELAWKKLKLDGLDEDGEKEARLIRNLNVILAKYGLDGKKDARQVTSNSLSGTQEDGLDDPRLEKLWHKAKTSGKFSGEELDKLWREFLHHKEKVHEYNVLLETLSRTEEIHENVISPSDLSDIKGSVLHSRHTELKEKLRSINQGLDRLRRVSHQGYSTEAEFEEPRVIDLWDLAQSANLTDKELEAFREELKHFEAKIEKHNHYQKQLEIAHEKLRHAESVGDGERVSRSREKHALLEGRTKELGYTVKKHLQDLSGRISRARHNEL
notes: Expressed in E. coli DH5alpha and adsorbed on Glutathione Sepharose 4 FF; also called RAP-Sepharose resin; RAP (receptor associated protein); not shown: GST encoded by vector pGEX2T (GE Healthcare Bio Science)

Legend:
[1] = molecular target: T1, purified human soluble LR11 (human, UniProt Q92673 82-2137, limits assumed); assay: sandwich ELISA, immobilized mouse IgG, liquid-phase biotinylated M5
T1 construct: Natural shed soluble form from serum (Lot. 061208); Also used for native soluble LR11 measured directly in human serum and cerebrospinal fluid; also called purified human LR11; soluble LR11 in human serum
T1 sequence (Q92673 82-2137 limits assumed): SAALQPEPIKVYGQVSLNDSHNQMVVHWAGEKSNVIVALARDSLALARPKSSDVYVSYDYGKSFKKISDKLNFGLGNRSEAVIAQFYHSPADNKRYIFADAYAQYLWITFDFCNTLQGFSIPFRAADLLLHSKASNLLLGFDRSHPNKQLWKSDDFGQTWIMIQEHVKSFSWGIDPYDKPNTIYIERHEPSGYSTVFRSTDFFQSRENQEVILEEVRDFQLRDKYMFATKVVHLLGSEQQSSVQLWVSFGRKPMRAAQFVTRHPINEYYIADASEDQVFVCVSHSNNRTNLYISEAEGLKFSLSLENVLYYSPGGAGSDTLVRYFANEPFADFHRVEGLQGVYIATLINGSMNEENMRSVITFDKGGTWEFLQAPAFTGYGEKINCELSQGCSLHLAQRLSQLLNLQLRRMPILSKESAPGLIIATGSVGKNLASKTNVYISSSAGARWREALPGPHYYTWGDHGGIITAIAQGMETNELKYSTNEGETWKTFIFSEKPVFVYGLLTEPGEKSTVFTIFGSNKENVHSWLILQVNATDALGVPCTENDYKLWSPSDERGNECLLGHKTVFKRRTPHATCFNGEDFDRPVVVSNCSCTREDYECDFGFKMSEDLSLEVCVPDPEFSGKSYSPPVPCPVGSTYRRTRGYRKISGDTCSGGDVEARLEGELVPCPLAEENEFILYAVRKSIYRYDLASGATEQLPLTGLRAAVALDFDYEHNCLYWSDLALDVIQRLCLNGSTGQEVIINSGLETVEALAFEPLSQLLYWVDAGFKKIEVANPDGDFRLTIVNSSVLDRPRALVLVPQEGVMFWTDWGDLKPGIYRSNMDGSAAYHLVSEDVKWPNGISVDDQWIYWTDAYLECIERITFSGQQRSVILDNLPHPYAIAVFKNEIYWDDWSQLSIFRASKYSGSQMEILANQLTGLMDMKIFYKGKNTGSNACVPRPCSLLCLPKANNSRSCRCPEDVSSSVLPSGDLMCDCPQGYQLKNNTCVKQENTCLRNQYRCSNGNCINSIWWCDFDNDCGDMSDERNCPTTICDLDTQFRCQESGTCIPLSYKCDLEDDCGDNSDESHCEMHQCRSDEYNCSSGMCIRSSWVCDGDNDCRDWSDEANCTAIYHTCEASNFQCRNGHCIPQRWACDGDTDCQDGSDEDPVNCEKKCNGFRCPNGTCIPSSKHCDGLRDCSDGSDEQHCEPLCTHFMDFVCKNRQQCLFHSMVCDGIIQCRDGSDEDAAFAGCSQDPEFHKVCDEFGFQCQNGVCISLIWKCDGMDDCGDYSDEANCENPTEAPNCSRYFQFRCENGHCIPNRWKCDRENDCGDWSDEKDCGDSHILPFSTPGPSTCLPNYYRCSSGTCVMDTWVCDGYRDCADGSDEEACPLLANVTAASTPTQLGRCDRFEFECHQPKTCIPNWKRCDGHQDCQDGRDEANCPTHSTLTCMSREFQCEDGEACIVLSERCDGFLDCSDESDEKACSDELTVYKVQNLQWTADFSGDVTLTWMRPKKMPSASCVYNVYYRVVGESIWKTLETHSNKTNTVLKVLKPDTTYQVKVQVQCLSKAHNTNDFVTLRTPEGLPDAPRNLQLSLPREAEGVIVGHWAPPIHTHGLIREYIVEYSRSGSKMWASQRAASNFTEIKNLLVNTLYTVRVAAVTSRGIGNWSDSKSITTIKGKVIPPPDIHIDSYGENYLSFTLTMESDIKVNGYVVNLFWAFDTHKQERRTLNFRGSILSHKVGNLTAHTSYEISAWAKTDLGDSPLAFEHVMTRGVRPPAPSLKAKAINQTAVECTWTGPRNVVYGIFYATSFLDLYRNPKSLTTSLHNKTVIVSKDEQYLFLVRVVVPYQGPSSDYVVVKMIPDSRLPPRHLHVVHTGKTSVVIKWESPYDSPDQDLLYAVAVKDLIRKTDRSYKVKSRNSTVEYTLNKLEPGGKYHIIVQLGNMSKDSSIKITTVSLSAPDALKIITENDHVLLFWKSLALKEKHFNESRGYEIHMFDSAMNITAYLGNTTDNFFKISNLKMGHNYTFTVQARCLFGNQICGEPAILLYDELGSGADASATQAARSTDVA

[2] = molecular target: T2, purified rabbit soluble LR11 (rabbit, UniProt Q95209 82-2136, limits assumed); assay: as above
T2 construct: also called purified rabbit LR11; soluble LR11 in rabbit serum
T2 sequence (Q95209 82-2136 limits assumed): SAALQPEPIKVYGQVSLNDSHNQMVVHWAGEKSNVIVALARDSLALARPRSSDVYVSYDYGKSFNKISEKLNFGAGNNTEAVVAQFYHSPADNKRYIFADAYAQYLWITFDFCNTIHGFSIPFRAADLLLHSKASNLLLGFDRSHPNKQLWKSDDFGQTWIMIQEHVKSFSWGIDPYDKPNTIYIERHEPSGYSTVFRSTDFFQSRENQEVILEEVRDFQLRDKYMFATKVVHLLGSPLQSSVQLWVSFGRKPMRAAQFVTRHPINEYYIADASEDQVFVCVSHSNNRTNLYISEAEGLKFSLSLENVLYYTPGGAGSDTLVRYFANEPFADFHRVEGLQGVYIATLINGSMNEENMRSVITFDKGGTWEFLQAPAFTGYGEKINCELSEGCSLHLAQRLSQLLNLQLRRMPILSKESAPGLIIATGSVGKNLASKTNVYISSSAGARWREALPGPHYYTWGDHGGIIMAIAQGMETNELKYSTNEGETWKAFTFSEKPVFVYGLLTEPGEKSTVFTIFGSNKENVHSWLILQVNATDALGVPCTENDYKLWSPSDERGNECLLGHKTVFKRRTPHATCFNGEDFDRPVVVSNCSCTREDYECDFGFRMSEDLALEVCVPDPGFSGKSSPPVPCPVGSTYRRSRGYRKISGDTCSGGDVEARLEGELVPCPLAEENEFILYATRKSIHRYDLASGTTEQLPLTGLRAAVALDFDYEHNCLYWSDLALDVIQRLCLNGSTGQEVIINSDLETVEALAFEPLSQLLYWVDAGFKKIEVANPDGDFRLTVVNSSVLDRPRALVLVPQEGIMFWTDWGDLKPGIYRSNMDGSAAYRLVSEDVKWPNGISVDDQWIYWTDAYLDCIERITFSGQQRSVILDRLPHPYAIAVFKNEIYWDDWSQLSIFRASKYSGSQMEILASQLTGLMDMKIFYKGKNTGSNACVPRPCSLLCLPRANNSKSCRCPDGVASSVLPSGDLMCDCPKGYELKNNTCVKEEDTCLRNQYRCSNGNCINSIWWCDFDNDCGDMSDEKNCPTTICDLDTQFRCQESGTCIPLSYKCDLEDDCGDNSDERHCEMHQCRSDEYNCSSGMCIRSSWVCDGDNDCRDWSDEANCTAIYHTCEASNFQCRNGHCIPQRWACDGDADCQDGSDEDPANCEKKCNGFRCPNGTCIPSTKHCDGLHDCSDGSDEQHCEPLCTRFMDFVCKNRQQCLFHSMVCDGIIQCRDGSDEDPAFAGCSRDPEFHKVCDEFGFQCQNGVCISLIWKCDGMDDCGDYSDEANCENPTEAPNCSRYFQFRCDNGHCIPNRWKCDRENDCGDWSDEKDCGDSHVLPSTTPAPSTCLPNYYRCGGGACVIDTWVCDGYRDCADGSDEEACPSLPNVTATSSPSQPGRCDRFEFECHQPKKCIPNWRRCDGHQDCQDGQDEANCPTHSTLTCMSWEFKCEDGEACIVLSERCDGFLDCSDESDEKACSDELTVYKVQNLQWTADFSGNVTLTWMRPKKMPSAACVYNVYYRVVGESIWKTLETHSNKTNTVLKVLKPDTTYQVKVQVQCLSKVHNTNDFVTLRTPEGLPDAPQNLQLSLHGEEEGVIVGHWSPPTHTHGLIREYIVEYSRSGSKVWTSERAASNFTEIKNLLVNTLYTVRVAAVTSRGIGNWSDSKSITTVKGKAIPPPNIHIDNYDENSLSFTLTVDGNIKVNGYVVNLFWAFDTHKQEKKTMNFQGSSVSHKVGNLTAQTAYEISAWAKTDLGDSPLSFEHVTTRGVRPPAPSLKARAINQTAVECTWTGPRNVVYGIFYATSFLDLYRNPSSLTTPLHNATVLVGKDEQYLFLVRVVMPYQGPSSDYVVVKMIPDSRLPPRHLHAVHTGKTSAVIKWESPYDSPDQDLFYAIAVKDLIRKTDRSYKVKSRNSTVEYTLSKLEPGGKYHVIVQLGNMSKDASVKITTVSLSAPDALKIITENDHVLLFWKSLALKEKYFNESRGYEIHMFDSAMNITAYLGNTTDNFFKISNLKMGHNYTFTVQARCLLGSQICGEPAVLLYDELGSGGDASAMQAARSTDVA

[3] = molecular target: T1, purified human soluble LR11; assay: sandwich ELISA, immobilized mouse IgG, liquid-phase biotinylated A2-2-3
[4] = molecular target: T2, purified rabbit soluble LR11; assay: as above
[5] = molecular target: T1, purified human soluble LR11; assay: sandwich ELISA, immobilized mouse IgG, liquid-phase biotinylated mouse IgG
[6] = molecular target: T2, purified rabbit soluble LR11; assay: as above
[7] = molecular target: T1, purified human soluble LR11; assay: sandwich ELISA, immobilized mouse IgG, liquid-phase biotinylated M3
[8] = molecular target: T2, purified rabbit soluble LR11; assay: as above
[9] = molecular target: T1, purified human soluble LR11; assay: sandwich ELISA, immobilized mouse IgG, liquid-phase biotinylated R14
[10] = molecular target: T2, purified rabbit soluble LR11; assay: as above
[11] = molecular target: T1, purified human soluble LR11; assay: sandwich ELISA, immobilized mouse IgG, liquid-phase biotinylated R23
[12] = molecular target: T2, purified rabbit soluble LR11; assay: as above
[13] = molecular target: T1, purified human soluble LR11; assay: affinity capture from serum on RAP/GST bound to Glutathione Sepharose
[14] = molecular target: T2, purified rabbit soluble LR11; assay: as above

Row | Molecule | Absorbance (492 nm) (Absorbance (492 nm)) [1] | Absorbance (492 nm) (Absorbance (492 nm)) [2] | Absorbance (492 nm) (Absorbance (492 nm)) [3] | Absorbance (492 nm) (Absorbance (492 nm)) [4] | Absorbance (492 nm) (Absorbance (492 nm)) [5] | Absorbance (492 nm) (Absorbance (492 nm)) [6] | Absorbance (492 nm) (Absorbance (492 nm)) [7] | Absorbance (492 nm) (Absorbance (492 nm)) [8] | Absorbance (492 nm) (Absorbance (492 nm)) [9] | Absorbance (492 nm) (Absorbance (492 nm)) [10] | Absorbance (492 nm) (Absorbance (492 nm)) [11] | Absorbance (492 nm) (Absorbance (492 nm)) [12] | binding result [13] | binding result [14]
1 | mouse IgG (negative control) (antibody) | 0.007 | -0.017 | 0.015 | -0.017 | -0.003 | 0.043 | 0.024 | -0.017 | -0.017 | -0.019 | -0.02 | -0.026 |  | 
2 | B1 |  |  |  |  |  |  |  |  |  |  |  |  | binds | binds
